Experimental data reported in patent US7928289B2, “Method for production of transgenic plants with increased pathogenic resistance by altering the content and/or activity of actin-depolymerising factors” (BASF Plant Science GmbH, priority 2004, dated 2011).

Assays:
peroxisomes = test: Movement of GFP-labeled peroxisomes in transfected epidermal leaf cells; type: cell-based, Hordeum vulgare; conditions: epidermal leaf cells from barley; co-expression with GFP having peroxisomal targeting sequence
Source text: In order to further examine the HvADF3 function in barley, the effect of the overexpression or the silencing of HvADF3 on the mobility of peroxisomes was examined. Peroxisomes are known to be moved along actin filaments (Mathur (2002) Plant Physiology, Vol. 128, 1031-1045). Herein, barley peroxisomes were visualized by co-transformation of a plasmid expressing a variant of the Green Fluorescent Protein (GFP) with a peroxisomal targeting sequence (Mathur et al., vide supra). Herein, epidermal leaf cells from barley were transfected either only with the GFP construct or together with the already mentioned mutant of HvADF3 (S^6A). The expression of said mutant corresponds to an increase of the content and the activity of ADF3.
With the aid of the PCR method, a so-called peroxisome target sequence (PTS) was fused C-terminally to the green fluorescent protein. Said sequence consists of the three amino acids serine (S), […], and leucine (L) (Jedd, G. et al. (2002) Plant Cell Physiol 43, 384-392).
The GFP peroxisome target sequence vector (pGFPTS, FIG. 6) has a maize polyubiquitin promoter (pUbi), the coding gene for the green fluorescent protein including the peroxisome target sequence (GFPTS), and a nopaline synthase transcription terminator sequence (NOS).
The overexpression of HvADF3 was performed as described in the above. […]

[1] = tested on: Blumeria graminis f. sp. hordei (Bgh); test: Fungal development on epidermal leaf cells co-transfected with GUS reporter and HvADF3(S^6A); type: cell-based, Hordeum vulgare; conditions: BCIngridmlo5; Bgh conidia four hours after bombardment
Procedure: Therefore, those cells were examined, which had been transfected with HvADF3 overexpression constructs.
For said experiments, epidermal leaf cells from barley were co-transfected with a plasmid for the GUS reporter together with a plasmid coding for HvADF3(S^6A), as was described in the above. Four hours after bombardment, the leaves were infected with Bgh conidia, and 22 hours after inoculation the leaves were stained with respect to GUS activity and fungal structures. FIGS. 8a and b show the fungal development in a transfected epidermal leaf cell. […] The expression of HvADF3(S^6A) corresponds to an overexpression of HvADF3. The experiments were performed in BCIngridmlo5 plants.

actin cytoskeleton = test: Phalloidine staining of the actin cytoskeleton in transfected epidermal leaf cells; type: cell-based, Hordeum vulgare; conditions: BCIngridmlo5; cells labeled with dsRED
Source text: For this experiment, epidermal leaf cells from barley were transfected with a plasmid expressing dsRED (RFP) in order to label the transfected cells. In addition in some experiments, a constitutively active variant of HvADF3 bearing an S^6A amino acid substitution rendering the protein inaccessible for N-terminal phosphorylation was expressed. A corresponding mutant was described for ADF3 from maize (Smertenko et al., Plant J 14, 187-193).
As described in the above, said vectors were then used for transfecting the plants.
The dsRED vector (pUbi-RFP-Nos, FIG. 4) has a maize polyubiquitin promoter (pUbi), the coding gene for the red fluorescent protein (Discosoma sp. fluorescent protein FP583; RFP), and a nopaline synthase transcription termination sequence (NOS). The GenBank accession number for RFP is AF168419.
The experiments were conducted in BCIngridmlo5.

Peronospora parasitica = test: Infection of transgenic Arabidopsis plants with Peronospora parasitica; type: in vivo, Arabidopsis thaliana; conditions: constitutive or pathogen-inducible expression
Procedure: (§1) The transformation is conducted according to the floral dip method (modified according to Clough and Bent, 1998). After being harvested, the seeds are sterilized with chlorine gas overnight and subsequently laid out on selection plates. The addition of antibiotics is conducted in dependency on the plant resistance marker. In case of pSUN2, BASTA is added; in case of Lo123, kanamycin is added. After sterilization, the seeds are laid out on the selection plates and are stored for stratification for two days at 4° C. in a cooling chamber. Subsequently, they are further observed under short-day conditions. After about 10 days, the first selection of the plants can be performed. Non-transgenic plants will lose color during selection, while transgenic plants having the corresponding resistance gene remain green. Those plants remaining green after the first selection are selected a second time under same conditions. Those plants still maintaining their color during the second selection can then be transferred to soil. The plants are selfed and the resulting T2 seed populations are subjected to phytopathological analysis. […]
5 to 8-week-old plants are sprayed with a conidia spore suspension (about 10^6 spores/ml). […] These symptoms are quantified and tested for significance.

Erysiphe cichoracearum = test: Infection of transgenic Arabidopsis plants with Erysiphe cichoracearum; type: in vivo, Arabidopsis thaliana; conditions: constitutive or pathogen-inducible expression
Procedure: as §1
The biotrophic mildew fungus is cultivated on Arabidopsis thaliana plants. […] These symptoms are quantified and tested for significance.

Molecule | peroxisomal movement (peroxisomes) | fungal development in transfected cells [1] | phalloidine-stainable actin fibers in bombarded cells (actin cytoskeleton) | resistance to Peronospora parasitica as compared to non-transgenic wild-type plants (Peronospora parasitica) | resistance to Erysiphe cichoracearum as compared to non-transgenic wild-type plants (Erysiphe cichoracearum)
HvADF3 (S^6A): Constitutively active variant of barley ADF3 (SEQ ID No. 2) with S6A substitution, overexpressed from vector pHvADF3-CA (protein, Hordeum vulgare) MANASAGAGIHDDCKLRFVELKSKRMHRFITYRLENQKEVIVDQTGQRDATYEDFTKTLPENDCRFAVFDFDFTTPEDVPKSRIFYIFWSPDTAKVRSKMTYASNEKFKRTLDGIQIEMQATDPSEISLDVIKERAH | considerably reduced | the fungus can only form very short hyphae | stainable actin fibers could only be detected in the neighboring cells, but not in the bombarded cells | – | –
AtADF3: ADF3 from Arabidopsis thaliana (SEQ ID No. 11), expressed constitutively (pSUN2) or pathogen-inducibly (Lo123) in transgenic Arabidopsis plants (protein, listed as Arabidopsis thaliana) MANAASGMAVHDDCKLKFMELKTKRTHRFIIYKIEELQKQVIVEKIGEPGQTHEDLAASLPADECRYAIFDFDFVSSEGVPRSRIFFVAWSPDTARVRSKMIYASSKDRFKRELDGIQVELQATDPTEMDLDVFKSRAN | – | – | – | significantly increased resistance | significantly increased resistance
